# T1: factor VIIIa A1/A3C1C2 dimer, wild type (human, UniProt P00451 20-391; P00451 1709-2351)
# T1 sequence 1: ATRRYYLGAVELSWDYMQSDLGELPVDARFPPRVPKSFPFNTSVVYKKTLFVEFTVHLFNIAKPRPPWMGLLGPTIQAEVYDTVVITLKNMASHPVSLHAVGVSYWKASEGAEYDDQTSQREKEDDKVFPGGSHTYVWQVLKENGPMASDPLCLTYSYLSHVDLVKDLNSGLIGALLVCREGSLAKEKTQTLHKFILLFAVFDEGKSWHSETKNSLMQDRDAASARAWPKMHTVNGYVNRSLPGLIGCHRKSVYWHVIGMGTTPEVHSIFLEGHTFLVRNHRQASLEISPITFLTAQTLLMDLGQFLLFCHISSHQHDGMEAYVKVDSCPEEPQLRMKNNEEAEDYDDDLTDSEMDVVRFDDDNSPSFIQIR
# T1 sequence 2: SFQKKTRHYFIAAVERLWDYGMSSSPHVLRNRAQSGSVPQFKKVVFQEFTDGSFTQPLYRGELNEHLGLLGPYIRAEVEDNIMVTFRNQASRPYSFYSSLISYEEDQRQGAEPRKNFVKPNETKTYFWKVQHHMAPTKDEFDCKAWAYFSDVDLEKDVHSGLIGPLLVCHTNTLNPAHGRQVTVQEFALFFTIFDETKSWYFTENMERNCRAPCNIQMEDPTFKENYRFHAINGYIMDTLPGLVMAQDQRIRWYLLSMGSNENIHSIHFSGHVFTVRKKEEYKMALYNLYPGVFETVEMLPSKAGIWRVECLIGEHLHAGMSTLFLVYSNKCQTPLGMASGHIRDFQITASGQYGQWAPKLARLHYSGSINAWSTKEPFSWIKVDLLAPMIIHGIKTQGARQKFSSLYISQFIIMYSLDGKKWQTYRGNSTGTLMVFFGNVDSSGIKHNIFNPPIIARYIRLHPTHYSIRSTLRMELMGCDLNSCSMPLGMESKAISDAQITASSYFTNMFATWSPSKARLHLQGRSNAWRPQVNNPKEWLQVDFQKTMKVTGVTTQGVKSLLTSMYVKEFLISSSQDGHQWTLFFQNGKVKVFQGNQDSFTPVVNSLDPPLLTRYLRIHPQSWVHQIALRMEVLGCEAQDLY
# T2: factor VIIIa A1/A3C1C2 dimer, Glu1984Ala (human, UniProt P00451 20-391; P00451 1709-2351)
# T2 sequence 1: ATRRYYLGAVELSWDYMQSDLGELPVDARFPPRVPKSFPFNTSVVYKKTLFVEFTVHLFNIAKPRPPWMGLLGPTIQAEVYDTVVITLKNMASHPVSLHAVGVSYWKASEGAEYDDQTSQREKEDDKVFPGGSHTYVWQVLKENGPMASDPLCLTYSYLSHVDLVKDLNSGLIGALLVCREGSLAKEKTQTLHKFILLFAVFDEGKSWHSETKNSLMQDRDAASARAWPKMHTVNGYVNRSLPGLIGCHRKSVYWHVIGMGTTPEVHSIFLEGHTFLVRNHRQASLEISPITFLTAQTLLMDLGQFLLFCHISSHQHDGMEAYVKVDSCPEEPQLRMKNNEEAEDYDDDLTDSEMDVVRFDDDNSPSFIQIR
# T2 sequence 2: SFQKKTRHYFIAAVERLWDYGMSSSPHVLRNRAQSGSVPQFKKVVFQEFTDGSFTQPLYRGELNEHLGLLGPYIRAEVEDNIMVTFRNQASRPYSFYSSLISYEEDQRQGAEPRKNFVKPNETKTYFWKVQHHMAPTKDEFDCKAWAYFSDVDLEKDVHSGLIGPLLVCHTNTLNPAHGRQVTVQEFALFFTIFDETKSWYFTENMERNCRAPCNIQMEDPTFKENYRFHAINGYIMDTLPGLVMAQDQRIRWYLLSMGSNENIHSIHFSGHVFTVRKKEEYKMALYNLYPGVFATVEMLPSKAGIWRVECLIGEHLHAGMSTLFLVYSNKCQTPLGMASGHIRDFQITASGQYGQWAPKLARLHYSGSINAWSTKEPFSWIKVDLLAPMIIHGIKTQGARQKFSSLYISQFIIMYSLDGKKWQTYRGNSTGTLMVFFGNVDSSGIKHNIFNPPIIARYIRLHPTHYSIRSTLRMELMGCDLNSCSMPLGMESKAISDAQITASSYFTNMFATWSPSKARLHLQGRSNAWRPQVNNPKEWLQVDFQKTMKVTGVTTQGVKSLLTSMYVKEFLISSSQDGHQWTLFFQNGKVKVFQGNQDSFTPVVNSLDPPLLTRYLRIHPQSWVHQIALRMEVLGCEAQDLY
# T3: factor VIIIa A1/A3C1C2 dimer, Glu1984Val (human, UniProt P00451 20-391; P00451 1709-2351)
# T3 sequence 1: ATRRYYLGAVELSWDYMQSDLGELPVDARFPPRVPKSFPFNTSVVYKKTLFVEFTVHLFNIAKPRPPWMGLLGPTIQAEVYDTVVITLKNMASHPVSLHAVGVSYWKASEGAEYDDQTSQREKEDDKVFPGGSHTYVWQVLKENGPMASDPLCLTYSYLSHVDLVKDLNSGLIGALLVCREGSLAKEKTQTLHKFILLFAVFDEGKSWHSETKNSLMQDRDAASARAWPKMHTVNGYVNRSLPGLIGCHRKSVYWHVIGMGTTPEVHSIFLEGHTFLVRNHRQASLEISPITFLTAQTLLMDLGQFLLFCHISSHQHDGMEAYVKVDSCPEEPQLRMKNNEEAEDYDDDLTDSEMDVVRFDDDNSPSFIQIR
# T3 sequence 2: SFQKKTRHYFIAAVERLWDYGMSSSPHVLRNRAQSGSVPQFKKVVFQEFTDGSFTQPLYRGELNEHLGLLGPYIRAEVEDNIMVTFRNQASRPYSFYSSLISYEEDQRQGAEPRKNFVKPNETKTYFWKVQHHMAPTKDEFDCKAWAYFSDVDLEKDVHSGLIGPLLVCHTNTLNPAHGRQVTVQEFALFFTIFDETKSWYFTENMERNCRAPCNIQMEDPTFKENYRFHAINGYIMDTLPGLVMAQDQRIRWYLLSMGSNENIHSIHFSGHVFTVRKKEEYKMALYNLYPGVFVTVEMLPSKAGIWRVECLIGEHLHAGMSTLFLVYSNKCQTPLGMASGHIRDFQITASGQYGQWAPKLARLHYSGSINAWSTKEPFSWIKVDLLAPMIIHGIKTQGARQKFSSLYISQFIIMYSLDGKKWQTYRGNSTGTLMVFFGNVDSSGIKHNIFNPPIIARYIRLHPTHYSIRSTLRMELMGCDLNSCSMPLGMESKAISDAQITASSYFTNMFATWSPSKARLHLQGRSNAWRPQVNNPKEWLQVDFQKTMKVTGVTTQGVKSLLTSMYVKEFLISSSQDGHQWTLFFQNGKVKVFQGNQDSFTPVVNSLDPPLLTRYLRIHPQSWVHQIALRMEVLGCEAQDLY
# T4: factor VIIIa A1/A3C1C2 dimer, Glu113Ala (human, UniProt P00451 20-391; P00451 1709-2351)
# T4 chain 1: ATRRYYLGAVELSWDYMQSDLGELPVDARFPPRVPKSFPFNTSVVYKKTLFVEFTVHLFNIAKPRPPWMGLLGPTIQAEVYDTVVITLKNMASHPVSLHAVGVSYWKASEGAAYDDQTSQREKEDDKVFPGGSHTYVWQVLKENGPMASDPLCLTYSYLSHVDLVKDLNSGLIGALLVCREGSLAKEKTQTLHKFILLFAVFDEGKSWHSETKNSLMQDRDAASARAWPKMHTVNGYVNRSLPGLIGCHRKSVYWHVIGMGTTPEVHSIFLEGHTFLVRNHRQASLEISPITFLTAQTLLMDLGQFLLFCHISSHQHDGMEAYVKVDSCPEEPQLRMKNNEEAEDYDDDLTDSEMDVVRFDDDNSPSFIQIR
# T4 chain 2: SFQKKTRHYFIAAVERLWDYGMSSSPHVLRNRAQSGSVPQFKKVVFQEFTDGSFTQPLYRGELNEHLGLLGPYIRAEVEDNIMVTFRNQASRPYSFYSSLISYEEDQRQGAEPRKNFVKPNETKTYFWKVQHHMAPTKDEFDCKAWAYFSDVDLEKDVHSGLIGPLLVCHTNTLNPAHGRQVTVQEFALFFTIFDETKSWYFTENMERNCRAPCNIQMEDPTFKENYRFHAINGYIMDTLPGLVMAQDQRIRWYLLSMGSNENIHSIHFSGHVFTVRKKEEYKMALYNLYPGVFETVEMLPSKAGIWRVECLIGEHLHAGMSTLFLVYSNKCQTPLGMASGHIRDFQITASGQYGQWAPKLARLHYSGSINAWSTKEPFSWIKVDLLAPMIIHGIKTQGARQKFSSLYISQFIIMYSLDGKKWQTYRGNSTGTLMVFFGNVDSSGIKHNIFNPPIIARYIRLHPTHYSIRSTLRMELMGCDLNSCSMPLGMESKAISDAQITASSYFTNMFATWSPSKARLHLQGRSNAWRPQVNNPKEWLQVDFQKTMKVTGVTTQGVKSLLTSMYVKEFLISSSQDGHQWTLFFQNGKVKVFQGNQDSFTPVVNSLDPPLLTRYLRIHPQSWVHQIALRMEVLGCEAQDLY
# Legend:
# Assay in all cases: cell-based or functional assay
# [1] = target: T1, factor VIIIa A1/A3C1C2 dimer, wild type
# [2] = target: T2, factor VIIIa A1/A3C1C2 dimer, Glu1984Ala
# [3] = target: T3, factor VIIIa A1/A3C1C2 dimer, Glu1984Val
# [4] = target: T1, factor VIIIa A1/A3C1C2 dimer, wild type; remark: listed apart in the source
# [5] = target: T4, factor VIIIa A1/A3C1C2 dimer, Glu113Ala
"Decay rate relative to wild type, Factor VIIIa (1.5 nM, factor IXa absent) [1]","Decay rate, Factor VIIIa (1.5 nM factor VIIIa, factor IXa absent) [1] [min⁻¹]","Decay rate relative to wild type, Factor VIIIa (1.5 nM, factor IXa absent) [2]","Decay rate, Factor VIIIa (1.5 nM factor VIIIa, factor IXa absent) [2] [min⁻¹]","Decay rate relative to wild type, Factor VIIIa (1.5 nM, factor IXa absent) [3]","Decay rate, Factor VIIIa (1.5 nM factor VIIIa, factor IXa absent) [3] [min⁻¹]","Factor VIIIa Decay relative to the WT value, Factor IXa absent [4]","Factor VIIIa Decay relative to the WT value, Factor IXa present [4]","Factor VIIIa Decay, Factor IXa absent [4] [min⁻¹]","Factor VIIIa Decay, Factor IXa present [4] [min⁻¹]","Decay rate relative to wild type, Factor VIIIa (1.5 nM, factor IXa absent) [5]","Decay rate, Factor VIIIa (1.5 nM factor VIIIa, factor IXa absent) [5] [min⁻¹]",Binder
0.6 relative to wild type,0.0836,0.12 relative to wild type,0.0168,0.19 relative to wild type,0.0262,0.77 relative to WT,0.44 relative to WT,0.0642,0.0068,0.35 relative to wild type,0.0495,"factor VIIIa A2 subunit, Asp519Val (other) SVAKKHPKTWVHYIAAEEEDWDYAPLVLAPDDRSYKSQYLNNGPQRIGRKYKKVRFMAYTDETFKTREAIQHESGILGPLLYGEVGDTLLIIFKNQASRPYNIYPHGITDVRPLYSRRLPKGVKHLKDFPILPGEIFKYKWTVTVEVGPTKSDPRCLTRYYSSFVNMERDLASGLIGPLLICYKESVDQRGNQIMSDKRNVILFSVFDENRSWYLTENIQRFLPNPAGVQLEDPEFQASNIMHSINGYVFDSLQLSVCLHEVAYWYILSIGAQTDFLSVFFSGYTFKHKMVYEDTLTLFPFSGETVFMSMENPGLWILGCHNSDFRNRGMTALLKVSSCDKNTGDYYEDSYEDISAYLLSKNNAIEPR"
0.14 relative to wild type,0.0198,0.1 relative to wild type,0.0142,0.16 relative to wild type,0.0227,–,–,–,–,–,–,"factor VIIIa A2 subunit, D519V and E665V (other) SVAKKHPKTWVHYIAAEEEDWDYAPLVLAPDDRSYKSQYLNNGPQRIGRKYKKVRFMAYTDETFKTREAIQHESGILGPLLYGEVGDTLLIIFKNQASRPYNIYPHGITDVRPLYSRRLPKGVKHLKDFPILPGEIFKYKWTVTVEVGPTKSDPRCLTRYYSSFVNMERDLASGLIGPLLICYKESVDQRGNQIMSDKRNVILFSVFDENRSWYLTENIQRFLPNPAGVQLEDPEFQASNIMHSINGYVFDSLQLSVCLHEVAYWYILSIGAQTDFLSVFFSGYTFKHKMVYVDTLTLFPFSGETVFMSMENPGLWILGCHNSDFRNRGMTALLKVSSCDKNTGDYYEDSYEDISAYLLSKNNAIEPR"
0.64 relative to wild type,0.0898,0.19 relative to wild type,0.0266,0.23 relative to wild type,0.0319,0.66 relative to WT,0.41 relative to WT,0.0556,0.0063,0.53 relative to wild type,0.0748,"factor VIIIa A2 subunit, Asp519Ala (other) SVAKKHPKTWVHYIAAEEEDWDYAPLVLAPDDRSYKSQYLNNGPQRIGRKYKKVRFMAYTDETFKTREAIQHESGILGPLLYGEVGDTLLIIFKNQASRPYNIYPHGITDVRPLYSRRLPKGVKHLKDFPILPGEIFKYKWTVTVEAGPTKSDPRCLTRYYSSFVNMERDLASGLIGPLLICYKESVDQRGNQIMSDKRNVILFSVFDENRSWYLTENIQRFLPNPAGVQLEDPEFQASNIMHSINGYVFDSLQLSVCLHEVAYWYILSIGAQTDFLSVFFSGYTFKHKMVYEDTLTLFPFSGETVFMSMENPGLWILGCHNSDFRNRGMTALLKVSSCDKNTGDYYEDSYEDISAYLLSKNNAIEPR"
